Results on one protein are retold here after patent US20190030149.

In data set [1] the target is T1, peptide CALLPAVPSL (SEQ ID NO: 16), Example 3.
T1 chain: CALLPAVPSL

For data set [2], the target named is T2, peptide CRVPGVAPTL (SEQ ID NO: 18), Example 4.
T2 chain: CRVPGVAPTL

Data set [3] concerns the target T3, peptide CSLGEQQYSV (SEQ ID NO: 17), Example 5.
T3 chain: CSLGEQQYSV

B1: Endoplasmic reticulum aminopeptidase 1 (protein)
chain: MVFLPLKWSLATMSFLLSSLLALLTVSTPSWCQSTEASPKRSDGTPFPWNKIRLPEYVIPVHYDLLIHANLTTLTFWGTTKVEITASQPTSTIILHSHHLQISRATLRKGAGERLSEEPLQVLEHPRQEQIALLAPEPLLVGLPYTVVIHYAGNLSETFHGFYKSTYRTKEGELRILASTQFEPTAARMAFPCFDEPAFKASFSIKIRREPRHLAISNMPLVKSVTVAEGLIEDHFDVTVKMSTYLVAFIISDFESVSKITKSGVKVSVYAVPDKINQADYALDAAVTLLEFYEDYFSIPYPLPKQDLAAIPDFQSGAMENWGLTTYRESALLFDAEKSSASSKLGITMTVAHELAHQWFGNLVTMEWWNDLWLNEGFAKFMEFVSVSVTHPELKVGDYFFGKCFDAMEVDALNSSHPVSTPVENPAQIREMFDDVSYDKGACILNMLREYLSADAFKSGIVQYLQKHSYKNTKNEDLWDSMASICPTDGVKGMDGFCSRSQHSSSSSHWHQEGVDVKTMMNTWTLQKGFPLITITVRGRNVHMKQEHYMKGSDGAPDTGYLWHVPLTFITSKSDMVHRFLLKTKTDVLILPEEVEWIKFNVGMNGYYIVHYEDDGWDSLTGLLKGTHTAVSSNDRASLINNAFQLVSIGKLSIEKALDLSLYLKHETEIMPVFQGLNELIPMYKLMEKRDMNEVETQFKAFLIRLLRDLIDKQTWTDEGSVSERMLRSQLLLLACVHNYQPCVQRAEGYFRKWKESNGNLSLPVDVTLAVFAVGAQSTEGWDFLYSKYQFSLSSTEKSQIEFALCRTQNKEKLQWLLDESFKGDKIKTQEFPQILTLIGRNPVGYPLAWQFLRKNWNKLVQKFELGSSSIAHMVMGTTNQFSTRTRLEEVKGFFSSLKENGSQLRCVQQTIETIEENIGWMDKNFDKIRVWLQSEKLERM
In data set [1], B1 yielded a formation rate (%) of the peptide obtained by trimming (SEQ ID NO: 5), 1 hr later of 65.5%; a formation rate (%) of the peptide obtained by trimming (SEQ ID NO: 5), 2 hr later of 50.6%; a formation rate (%) of the peptide obtained by trimming (SEQ ID NO: 5), 4 hr later of 13.5%; a formation rate (%) of the peptide obtained by trimming (SEQ ID NO: 5), 8 hr later of 0%. In addition, in data set [2], the formation rate (%) of the peptide obtained by trimming (SEQ ID NO: 7), 1 hr later stood at 59.1%; the formation rate (%) of the peptide obtained by trimming (SEQ ID NO: 7), 2 hr later is 57.5%; the formation rate (%) of the peptide obtained by trimming (SEQ ID NO: 7), 4 hr later was determined as 30.1%; the formation rate (%) of the peptide obtained by trimming (SEQ ID NO: 7), 8 hr later turned out to be 7.8%. In data set [3], this protein returned a formation rate (%) of the peptide obtained by trimming (SEQ ID NO: 6), 1 hr later of 77.6%; a formation rate (%) of the peptide obtained by trimming (SEQ ID NO: 6), 2 hr later of 72.8%; a formation rate (%) of the peptide obtained by trimming (SEQ ID NO: 6), 4 hr later of 46%; a formation rate (%) of the peptide obtained by trimming (SEQ ID NO: 6), 8 hr later of 7.9%.
